Source: PMC10319729 (2023)

T1: LGR5ΔCT (human LGR5 without the cytoplasmic C-terminal tail) on HEK293 cells (human, UniProt O75473 22-907)
T1 chain: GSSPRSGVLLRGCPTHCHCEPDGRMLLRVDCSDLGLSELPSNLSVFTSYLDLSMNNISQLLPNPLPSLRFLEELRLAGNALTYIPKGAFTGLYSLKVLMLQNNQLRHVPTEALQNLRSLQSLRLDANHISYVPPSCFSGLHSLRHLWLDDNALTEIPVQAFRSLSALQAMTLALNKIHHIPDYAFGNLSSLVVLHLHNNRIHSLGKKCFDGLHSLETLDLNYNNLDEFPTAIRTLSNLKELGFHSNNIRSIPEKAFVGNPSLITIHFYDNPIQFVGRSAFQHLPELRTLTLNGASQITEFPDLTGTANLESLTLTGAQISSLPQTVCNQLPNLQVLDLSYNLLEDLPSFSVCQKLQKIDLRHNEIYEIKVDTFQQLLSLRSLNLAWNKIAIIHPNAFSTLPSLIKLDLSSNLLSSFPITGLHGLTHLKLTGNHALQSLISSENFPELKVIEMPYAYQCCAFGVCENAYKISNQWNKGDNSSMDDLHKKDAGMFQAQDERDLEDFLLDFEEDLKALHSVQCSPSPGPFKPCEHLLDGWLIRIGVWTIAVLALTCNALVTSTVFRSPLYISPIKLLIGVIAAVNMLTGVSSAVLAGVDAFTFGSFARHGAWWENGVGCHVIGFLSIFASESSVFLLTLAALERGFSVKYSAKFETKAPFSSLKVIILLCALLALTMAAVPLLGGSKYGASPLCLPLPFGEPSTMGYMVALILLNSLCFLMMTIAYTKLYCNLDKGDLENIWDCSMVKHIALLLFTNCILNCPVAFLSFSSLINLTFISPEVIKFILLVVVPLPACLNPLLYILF

B1: R2Fu-mFc (RSPO2 furin domain fused to monomeric human IgG4-Fc, monovalent) (Fc fusion)
chain: NPICKGCLSCSKDNGCSRCQQKLFFFLRREGMRQYGECLHSCPSGYYGHRAPDMNRCARCRIENCDSCFSKDFCTKCKVGFYLHRGRCFDECPDGFAPLEETMECVE
B2: R2Fu-bFc (RSPO2 furin domain fused to wild-type IgG1-Fc, bivalent) (Fc fusion)
chain: B1 chain

Key:
[1] = target: T1, LGR5ΔCT (human LGR5 without the …)
[2] = target: LGR4 (HA-LGR4) over-expressed on HEK293 cells (UniProt Q9BXB1 25-951)

Binder	Kd [1] [nM]	Kd [2] [nM]
B1	2.3	–
B2	1.8	9
